These results are taken from patent US20200062842A1.

For assay [1], the target named is human MUC1 on the surface of MUC1 expressing tumor cells (human) (UniProt P15941). As to the kind of experiment: FACS, bone marrow aspirate of MM patient P #I. For orientation: A flow cytometer gives signals particle by particle.
Assay [2] has the same target. As to the kind of experiment: FACS, bone marrow aspirate of MM patient P #3.
The target is the same in assay [3]. As to the kind of experiment: FACS, bone marrow aspirate of MM patient P #II.
For assay [4] the target is unchanged. As to the kind of experiment: flow cytometry, FITC-conjugated antibody, MCF7 cells; cell looks truncated.
For assay [5] the target is unchanged. Kind of assay: flow cytometry, FITC-conjugated antibody, Raji cells; cell looks truncated.
For assay [6] the target is unchanged. As to the kind of experiment: flow cytometry, FITC-conjugated antibody, U266 cells; cell looks truncated.
For assay [7] the target is unchanged. Kind of assay: flow cytometry, FITC-conjugated antibody, ARH-77 cells; cell looks truncated.
Assay [8] shares this target. As to the kind of experiment: flow cytometry, FITC-conjugated antibody, MDA-231 cells; cell looks truncated.
For assay [9] the target is unchanged. As to the kind of experiment: flow cytometry, FITC-conjugated antibody, MDA-453 cells; cell looks truncated.
For assay [10] the target is unchanged. Kind of assay: flow cytometry, FITC-conjugated antibody, OVCAR-3 cells; cell looks truncated.
The target is the same in assay [11]. Kind of assay: flow cytometry, FITC-conjugated antibody, RPMI8226 cells; cell looks truncated.
Assay [12] has the same target. As to the kind of experiment: flow cytometry, FITC-conjugated antibody, MCF7 cells; negative control.
Assay [13] has the same target. Kind of assay: flow cytometry, FITC-conjugated antibody, Raji cells; negative control.
Assay [14] has the same target. As to the kind of experiment: flow cytometry, FITC-conjugated antibody, U266 cells; negative control.
The target is the same in assay [15]. Kind of assay: flow cytometry, FITC-conjugated antibody, Ramos cells; negative control.
Assay [16] shares this target. As to the kind of experiment: flow cytometry, FITC-conjugated antibody, ARH-77 cells; negative control.
For assay [17] the target is unchanged. As to the kind of experiment: flow cytometry, FITC-conjugated antibody, MDA-231 cells; negative control.
Assay [18] has the same target. As to the kind of experiment: flow cytometry, FITC-conjugated antibody, MDA-453 cells; negative control.
The target is the same in assay [19]. As to the kind of experiment: flow cytometry, FITC-conjugated antibody, OVCAR-3 cells; negative control.
Assay [20] shares this target. Kind of assay: flow cytometry, FITC-conjugated antibody, RPMI8226 cells; negative control.

Chain of UniProt P15941 (P15941 24-1255): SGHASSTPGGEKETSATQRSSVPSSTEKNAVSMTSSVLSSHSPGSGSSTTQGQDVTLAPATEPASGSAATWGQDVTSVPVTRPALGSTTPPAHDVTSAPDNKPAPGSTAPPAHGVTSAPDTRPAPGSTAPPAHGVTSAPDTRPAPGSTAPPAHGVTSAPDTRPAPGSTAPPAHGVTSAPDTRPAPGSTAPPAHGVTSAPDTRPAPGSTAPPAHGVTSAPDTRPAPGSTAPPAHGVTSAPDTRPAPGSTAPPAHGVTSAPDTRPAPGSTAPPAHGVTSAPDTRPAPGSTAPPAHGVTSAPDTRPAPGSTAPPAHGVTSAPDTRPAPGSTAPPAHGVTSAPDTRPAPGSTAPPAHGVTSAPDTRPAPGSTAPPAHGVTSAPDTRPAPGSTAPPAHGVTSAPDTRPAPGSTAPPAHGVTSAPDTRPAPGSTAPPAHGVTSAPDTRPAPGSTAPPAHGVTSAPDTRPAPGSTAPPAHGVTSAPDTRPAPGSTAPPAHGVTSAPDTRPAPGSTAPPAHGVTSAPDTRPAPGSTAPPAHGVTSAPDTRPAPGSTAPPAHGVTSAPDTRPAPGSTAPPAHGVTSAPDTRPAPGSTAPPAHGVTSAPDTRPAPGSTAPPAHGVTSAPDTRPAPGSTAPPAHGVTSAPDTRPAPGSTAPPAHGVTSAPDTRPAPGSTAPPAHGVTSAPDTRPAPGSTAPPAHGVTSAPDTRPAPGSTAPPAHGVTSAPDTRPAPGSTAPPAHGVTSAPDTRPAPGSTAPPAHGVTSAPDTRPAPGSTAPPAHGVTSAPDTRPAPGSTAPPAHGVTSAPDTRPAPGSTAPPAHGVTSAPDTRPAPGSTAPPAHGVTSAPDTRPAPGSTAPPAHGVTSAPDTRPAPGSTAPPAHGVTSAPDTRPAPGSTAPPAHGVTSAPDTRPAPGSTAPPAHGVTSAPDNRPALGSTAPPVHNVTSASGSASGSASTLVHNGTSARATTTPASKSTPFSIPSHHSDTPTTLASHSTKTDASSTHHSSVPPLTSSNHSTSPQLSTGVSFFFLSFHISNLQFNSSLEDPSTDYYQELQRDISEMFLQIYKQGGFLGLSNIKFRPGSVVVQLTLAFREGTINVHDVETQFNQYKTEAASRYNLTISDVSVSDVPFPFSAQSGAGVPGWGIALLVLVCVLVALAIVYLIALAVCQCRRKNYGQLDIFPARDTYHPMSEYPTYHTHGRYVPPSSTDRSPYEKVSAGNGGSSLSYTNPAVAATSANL

For H23 anti-MUC1 TRA monoclonal antibody, the % of CD138 positive cells immunoreactive is 78.3% in assay [1] and 59.2% in [3]. Further, the % of cells immunoreactive in assay [2] amounted to 0.37%. The geometric mean (FACS) in [4] worked out at 4; in [5], 3; in assay [6], 39; in assay [7], 68; in assay [8] it was 66; in [9], 80. The geometric mean (FACS) stood at 456 in [10] and 585 in assay [11].
As for “Mouse control (species-specific isotype control, FITC conjugated) (antibody)”, the geometric mean (FACS) was determined as 230 in [12]; 131 in assay [13]; 485 in assay [14]; 198 in assay [15]; 176 in assay [16]; 245 in assay [17]. Also, the geometric mean (FACS) in assay [18] turned out to be 182; in assay [19], 370; in assay [20], 745.
With “Rabbit control (species-specific isotype control, FITC conjugated) (antibody)”, the geometric mean (FACS) in [12] turned out to be 236; in [13], 128; in assay [14], 471; in assay [15], 111; in assay [16], 161; in assay [17], 215. Moreover, the results for the geometric mean (FACS) in assay [18], in [19] and in [20] were 165, 418 and 738, respectively.
